Entries after “also recorded” stand apart in the source; their conditions may differ.
Experiments:
[1] = test system: prostate tissue of SD rats; assay: CP/CPPS animal model by immunization with antigen plus CFA; HE staining and pathological score of prostate; assay type: in vivo, rat
Source text: (§1) Experiment is designed and performed as follows. Firstly, pure TRPM8 protein is combined with Complete Freund's adjuvant (CFA) to establish an animal model of CP/CPPS. The animal model is compared with a prostatein homogenate modeling method. Meanwhile, TRPM8 in prostatein homogenate is removed by immunomagnetic beads; wherein the prostatein homogenate is molded for serving as a negative control. HE staining method is utilized to evaluate the severity of inflammation in prostate tissue of each modeling group of animal, and the severity of inflammation in prostate tissue is performed with pathological score. CD3 immunofluorescence method is adopted to observe infiltrating of T lymphocyte in prostate of the modeling animal.
Take 40 8-week-old SPF level male SD rats, with weights at a range of 250±20 g. The rats are purchased from Shanghai Sijie laboratory Co., Ltd with a license number of SCXK (Shanghai) 2012-0006. Under an aseptic condition, prostate of an SD rats is taken to prepare prostatein homogenate and TRPM8 removed homogenate protein. Grouping of immune animals in experiments is as follows. 40 8-week-old SD rats are randomly classified into 4 groups, i.e., a homogenate protein group, a TRPM8 removed homogenate protein group, a pure TRPM8 protein group and a control group; wherein each group comprises 10 rats. After 8 weeks of immune, each group of the rats are injected with 10% chloral hydrate on abdomen for anesthesia, and plasma and prostate of each group of rats are respectively collected. Preparation of prostate pathological section: the paraffin embedded prostate sections of the rats in each experimental group are sent to a drying oven, heated under 60° C. for 30 min. […]
According to HE staining result, prostatitis degree of each group of rats are pathologically scored under standards as follows. […]
Each prostate section is scored by three associate professors in pathology according to the standards mentioned above under a randomized and double-blind principle, and an average value calculated is a histological score indicating degree of the prostatitis of the animal. […]

[2] = test system: T lymphocyte in prostate of the modeling animal; assay: CD3 immunofluorescence staining of prostate tissue; assay type: in vivo, rat; settings: SD rats immunized with antigen combined with CFA
Source text: as §1
In addition, the prostate tissue sections of each group of animals to be tested are taken, baked in an oven for 30 minutes at 60° C., then subjected to CD3 immunofluorescence, and finally added with anti-fluorescence quenching agent for sealing, observed under a microscope, wherein photos are taken.
In order to improve the inflammatory cell containing a plurality of T-lymphocytes, the CD3 molecules are performed with immunofluorescence staining. The results are shown in FIG. 3: A: control blank group; B: protein homogenate group; C: pure TRPM8 protein group; D: TRPM8 protein free homogenate group.

B1: TRPM8 protein: TRPM8 protein purchased from ProteinTech Group; combined with CFA to immunize SD rats (protein)
chain: MSFRAARLSMRNRRNDTLDSTRTLYSSASRSTDLSYSESDLVNFIQANFKKRECVFFTKDSKATENVCKCGYAQSQHMEGTQINQSEKWNYKKHTKEFPTDAFGDIQFETLGKKGKYIRLSCDTDAEILYELLTQHWHLKTPNLVISVTGGAKNFALKPRMRKIFSRLIYIAQSKGAWILTGGTHYGLMKYIGEVVRDNTISRSSEENIVAIGIAAWGMVSNRDTLIRNCDAEGYFLAQYLMDDFTRDPLYILDNNHTHLLLVDNGCHGHPTVEAKLRNQLEKYISERTIQDSNYGGKIPIVCFAQGGGKETLKAINTSIKNKIPCVVVEGSGQIADVIASLVEVEDALTSSAVKEKLVRFLPRTVSRLPEEETESWIKWLKEILECSHLLTVIKMEEAGDEIVSNAISYALYKAFSTSEQDKDNWNGQLKLLLEWNQLDLANDEIFTNDRRWESADLQEVMFTALIKDRPKFVRLFLENGLNLRKFLTHDVLTELFSNHFSTLVYRNLQIAKNSYNDALLTFVWKLVANFRRGFRKEDRNGRDEMDIELHDVSPITRHPLQALFIWAILQNKKELSKVIWEQTRGCTLAALGASKLLKTLAKVKNDINAAGESEELANEYETRAVELFTECYSSDEDLAEQLLVYSCEAWGGSNCLELAVEATDQHFIAQPGVQNFLSKQWYGEISRDTKNWKIILCLFIIPLVGCGFVSFRKKPVDKHKKLLWYYVAFFTSPFVVFSWNVVFYIAFLLLFAYVLLMDFHSVPHPPELVLYSLVFVLFCDEVRQWYVNGVNYFTDLWNVMDTLGLFYFIAGIVFRLHSSNKSSLYSGRVIFCLDYIIFTLRLIHIFTVSRNLGPKIIMLQRMLIDVFFFLFLFAVWMVAFGVARQGILRQNEQRWRWIFRSVIYEPYLAMFGQVPSDVDGTTYDFAHCTFTGNESKPLCVELDEHNLPRFPEWITIPLVCIYMLSTNILLVNLLVAMFGYTVGTVQENNDQVWKFQRYFLVQEYCSRLNIPFPFIVFAYFYMVVKKCFKCCCKEKNMESSVCCFKNEDNETLAWEGVMKENYLVKINTKANDTSEEMRHRFRQLDTKLNDLKGLLKEIANKIK
[1]; SD rats immunized with antigen
  pathogenicity causing CP/CPPS: successfully induces generation of CP/CPPS; also recorded: strong pathogenicity causing CP/CPPS
[1]; SD rats immunized with antigen combined with CFA, 8 weeks
  inflammatory cell infiltration in prostate (HE staining): a plurality of inflammatory cell infiltration
[1]; SD rats immunized with antigen combined with CFA, 8 weeks, score 0-3, M±SD
  histological score (pathological evaluation of prostatitis degree): 2.7000±0.4830
[2]
  CD3 immunofluorescence staining of prostate stromal: A large area of CD3 molecule marked by red luminescence

From US11175289B2, “Application of TRPM8 protein, related peptide fragment and their antibodies” (priority 2016, dated 2021)
